Values quoted from earlier work, collected in patent US20250319161A1, “IMPROVED METHODS OF TREATING DISEASES RESULTING FROM A MALADAPTED STRESS RESPONSE” (priority 2021, published 2025).
Ends that are not written are not given here.

Assays:
[1] = molecular target: T1, CRFR2 (Homo sapiens, UniProt Q13324); settings: read-out: inhibitory constant at CRFR2
T1 sequence (Q13324 1-411): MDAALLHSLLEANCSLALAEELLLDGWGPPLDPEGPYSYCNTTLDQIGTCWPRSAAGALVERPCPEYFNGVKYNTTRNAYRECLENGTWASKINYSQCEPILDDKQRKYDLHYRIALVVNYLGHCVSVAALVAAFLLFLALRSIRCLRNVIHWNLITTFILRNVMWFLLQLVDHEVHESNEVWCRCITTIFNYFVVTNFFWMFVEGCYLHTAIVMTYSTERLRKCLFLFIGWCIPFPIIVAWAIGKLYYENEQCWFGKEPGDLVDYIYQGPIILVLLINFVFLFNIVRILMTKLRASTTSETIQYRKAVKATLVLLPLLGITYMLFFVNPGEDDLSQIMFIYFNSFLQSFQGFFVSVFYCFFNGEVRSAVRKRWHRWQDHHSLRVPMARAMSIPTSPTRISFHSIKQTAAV

[2] = molecular target: T1, CRFR2; settings: in vitro
[3] = molecular target: T1, CRFR2; settings: in vitro; remark: listed apart in the source

Row | Substance | Ki [1] [nM] | EC50 [2] [nM] | concentration achieving maximal CRFR2 endocytosis [3] [nmol]
1 | endogenous urocortin 1, DNPSLSIDLTFHLLRTLLELARTQSQRERAEQNRIIFDSV-NH2 (DNPSLSIDLTFHLLRTLLELARTQSQRERAEQNRIIFDSV-NH2; UniProt P55089 83-122, looked up) [UCN1] | 0.4 | – | –
2 | endogenous urocortin 2, IVLSLDVPIG LLQILLEQAR ARAARBQATT NARILARV-NH2 [UCN2] | 1.1 | 4.3 | 100
